Target: P22 tailspike protein gp9 (bacteriophage P22, UniProt P12528 1-667)
Test: cryo-EM structure

B1: P22 tail accessory (head completion) protein gp4 (natural protein, bacteriophage P22, UniProt P26746 1-166, looked up)
chain: MQIKTKGDLVRAALRKLGVASDATLTDVEPQSMQDAVDDLEAMMAEWYQDGKGIITGYVFSDDENPPAEGDDHGLRSSAVSAVFHNLACRIAPDYALEATAKIIATAKYGKELLYKQTAISRAKRAPYPSRMPTGSGNSFANLNEWHYFPGEQNADSTTPHDEGNG
Q: Does B1 bind?
A: binds

— publication PMC1150889 (The EMBO Journal, 2005)
